The values that follow come from patent US20250326835A1, “USE OF ANTI-CLAUDIN-1 ANTIBODIES TO TREAT CHOLANGIOCARCINOMA” (Alentis Therapeutics AG, priority 2022, published 2025).

This test concerns the target T1, human Claudin-1 (CLDN1) on EGI-1 cholangiocarcinoma cells (human, UniProt O95832 1-211).
T1 construct: whole, on cells; Endogenously expressed on human CCA cell lines; also called non-junctional CLDN1
T1 sequence (looked up): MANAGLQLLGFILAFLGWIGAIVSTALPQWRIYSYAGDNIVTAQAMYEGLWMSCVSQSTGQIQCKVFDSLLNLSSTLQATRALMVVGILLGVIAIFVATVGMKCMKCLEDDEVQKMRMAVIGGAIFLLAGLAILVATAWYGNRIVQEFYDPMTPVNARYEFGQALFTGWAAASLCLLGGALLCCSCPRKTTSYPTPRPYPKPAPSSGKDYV
Nature of the test: flow cytometry on EGI-1 cells, 10 µg/ml antibody, Alexa647 secondary, delta-MFI against isotype control. As to the method: A first-line chemotherapy treatment for advanced CCA is cisplatin plus gemcitabine (Borbath et al., 48(7) Eur J Cancer 990-996 (May 2012)). To investigate the expression of CLDN1 upon treatment with cisplatin and gemcitabine, 1.5×10⁵ CCA EGI-1 cells were treated with cisplatin (100 nM) and gemcitabine (10 nM) for 24 hours. Cells were then collected, and CLDN1 expression was assessed by flow cytometry and Western Blot using CLDN1 specific Abs.
For flow cytometry, cells were incubated with the anti-CLDN1 mAb H3L3 or the isotype control mAb at a concentration of 10 μg/ml in triplicates per condition. Following incubation with the primary antibody for 1 hour, cells were washed and incubated with human Alexa647-conjugated secondary antibody at 4° C. for 45 minutes. Cells were subsequently washed and fixed with 2% paraformaldehyde (PFA). Data were acquired using Cytoflex B2R2V0 (Beckman Coulter) and analyzed using CytExpert 2.1 and FlowJo v10 (Beckman Coulter). CLDN1 expression was calculated as the difference of the mean fluorescence intensities of cells stained with anti-CLDN1 mAb H3L3 and isotype control mAb. The experiment was independently repeated three times.
In general terms: In flow cytometry, cells or beads pass a laser one at a time.

B1: anti-CLDN1 mAb H3L3 (antibody, human IgG1, kappa, V domains shown)
VH: QVQLVESGGGVVQPGRSLRLSCLGSGFSFSSYGMNWVRQAPGKGLEWVASISPSGSYFYYADSVKGRFTISRDNSKNTLYLQMTSLRAEDTAIYYCARLPGFNPPFDHWGQGTLVTVSS
VL: DIQMTQSPSSLSASVGDRVTITCKASQNVGGNVDWYQWKPGKAPKLLIYGASNRYTGVPDRFRGSGSGTDFTLTISSLQPEDVATYYCLQYKNNPWTFGGGTKVEIKR
notes: also called CLDN1-specific mAb H3L3; anti-CLDN1 H3L3 antibody
As to B1, the binding result is listed as “binds”.
